Reference: US20180193456A1 (HENLIUS BIOTECH, published 2018)

T1: human VEGFR3-Fc (R&D Systems) (human, UniProt P35916 25-776)
T1 construct: Bought; not shown: Fc
T1 sequence (looked up): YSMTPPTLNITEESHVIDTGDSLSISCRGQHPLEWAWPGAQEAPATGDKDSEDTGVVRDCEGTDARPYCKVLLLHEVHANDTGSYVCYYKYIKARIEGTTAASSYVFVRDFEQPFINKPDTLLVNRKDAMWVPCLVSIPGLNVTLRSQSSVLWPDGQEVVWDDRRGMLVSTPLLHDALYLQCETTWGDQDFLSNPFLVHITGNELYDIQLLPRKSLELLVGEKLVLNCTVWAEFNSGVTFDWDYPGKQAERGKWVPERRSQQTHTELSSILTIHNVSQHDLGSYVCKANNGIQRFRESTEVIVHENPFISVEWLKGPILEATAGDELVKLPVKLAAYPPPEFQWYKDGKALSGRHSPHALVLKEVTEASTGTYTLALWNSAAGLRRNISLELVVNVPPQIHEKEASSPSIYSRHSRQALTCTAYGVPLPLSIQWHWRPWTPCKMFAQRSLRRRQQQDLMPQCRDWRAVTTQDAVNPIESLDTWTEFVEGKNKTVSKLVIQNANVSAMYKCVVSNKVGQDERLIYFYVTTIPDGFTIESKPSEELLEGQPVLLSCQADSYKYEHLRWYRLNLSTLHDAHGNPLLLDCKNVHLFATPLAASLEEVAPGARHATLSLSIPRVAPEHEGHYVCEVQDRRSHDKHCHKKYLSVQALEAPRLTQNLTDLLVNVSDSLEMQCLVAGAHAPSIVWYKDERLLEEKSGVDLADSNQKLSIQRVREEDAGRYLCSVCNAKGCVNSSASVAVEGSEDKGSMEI

B1: 1121B (antibody, V domains shown)
VH: EVQLVQSGGGLVKPGGSLRLSCAASGFTFSSYSMNWVRQAPGKGLEWVSSISSSSSYIYYADSVKGRFTISRDNAKNSLYLQMNSLRAEDTAVYYCARVTDAFDIWGQGTMVTVSS
VL: EIVMTQSPATLSLSPGERATLSCRASQSVSSYLAWYQQKPGQAPRLLIYDSSNRATGIPARFSGSGSGTDFTLTISSLEPEDFATYYCLQHNTFPPTFGQGTKVEIKR
notes: Anti-VEGFR2 antibody of US 2009/0306348, positive control; The entries are called variable domains but run into the start of the constant domains
B2: 1121N (antibody, V domains shown)
VH: EVQLVQSGGGLVKPGGSLRLSCAASGFTFSSYSMNWVRQAPGKGLEWVSSISSSSSYIYYADSVKGRFTISRDNAKNSLYLQMNSLRAEDTAVYYCARVTDAFDIWGQGTMVTVSS
VL: DIQMTQSPSSVSASIGDRVTITCRASQGIDNWLGWYQQKPGKAPKLLIYDASNLDTGVPSRFSGSGSGTYFTLTISSLQAEDFAVYFCQQAKAFPPTFGGGTKVDIKG
notes: Anti-VEGFR2 antibody of U.S. Pat. No. 7,498,414, positive control; Entries run into the start of the constant domains

Columns and labels:
VEGFR2 = target: T2, VEGFR2 (UniProt P35968 20-764, limits assumed); experiment: SPR; antigen construct and format not stated
T2 construct: The SPR paragraphs name neither antigen construct nor format
T2 sequence (P35968 20-764 limits assumed): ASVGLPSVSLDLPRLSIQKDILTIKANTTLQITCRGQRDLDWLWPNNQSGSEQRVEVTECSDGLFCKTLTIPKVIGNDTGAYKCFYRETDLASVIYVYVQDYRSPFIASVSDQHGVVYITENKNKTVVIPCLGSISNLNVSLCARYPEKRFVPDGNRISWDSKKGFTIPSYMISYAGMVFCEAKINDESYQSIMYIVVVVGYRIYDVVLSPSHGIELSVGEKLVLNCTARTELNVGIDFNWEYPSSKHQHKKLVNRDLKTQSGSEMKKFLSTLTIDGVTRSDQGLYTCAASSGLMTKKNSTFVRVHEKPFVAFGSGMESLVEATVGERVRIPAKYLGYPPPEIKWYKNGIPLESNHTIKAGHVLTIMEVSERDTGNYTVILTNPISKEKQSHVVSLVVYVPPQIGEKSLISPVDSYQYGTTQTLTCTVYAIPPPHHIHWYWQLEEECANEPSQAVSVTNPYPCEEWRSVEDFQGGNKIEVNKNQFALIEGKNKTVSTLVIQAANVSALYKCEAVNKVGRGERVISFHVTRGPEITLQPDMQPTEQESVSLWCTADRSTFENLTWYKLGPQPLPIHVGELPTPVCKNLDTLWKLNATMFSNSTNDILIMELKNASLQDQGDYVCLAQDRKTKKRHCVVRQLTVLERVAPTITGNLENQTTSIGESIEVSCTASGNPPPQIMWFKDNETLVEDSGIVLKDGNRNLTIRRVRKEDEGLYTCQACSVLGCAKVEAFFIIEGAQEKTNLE

VEGFR2-AP [1] = target: T3, VEGFR2-AP (UniProt P35968 20-764); experiment: competition ELISA: antibody pre-incubated with VEGFR2-AP, mixture added to VEGF-coated wells, A405; blocked ligand: VEGF
T3 construct: also called AP-conjugated VEGFR2; AP-conjugated VEGFR; not shown: alkaline phosphatase (AP)
T3 sequence (P35968 20-764): as the sequence (P35968 20-764 limits assumed) above

VEGFR2-AP [2] = target: T3, VEGFR2-AP; experiment: ELISA, antibody captured with anti-Fc, VEGFR2-AP added (axis printed OD450)
VEGFR2-Fc = target: T4, VEGFR2-Fc (UniProt P35968 20-764, limits assumed); experiment: ELISA, VEGFR2-Fc coated, anti-human kappa-HRP, OD450
T4 construct: also called biotinylated VEGFR2-Fc; not shown: Fc
T4 sequence (P35968 20-764 limits assumed): as above

VEGFR2-AP [3] = target: T3, VEGFR2-AP; experiment: ELISA, antibody captured with anti-Fd, VEGFR2-AP added (axis printed OD450)
Mouse VEGFR2-Fc = target: T5, Mouse VEGFR2-Fc (mouse, UniProt P35918 20-762, limits assumed); experiment: ELISA, mouse VEGFR2-Fc coated, anti-human kappa-HRP, A450
T5 construct: not shown: Fc
T5 sequence (P35918 20-762 limits assumed): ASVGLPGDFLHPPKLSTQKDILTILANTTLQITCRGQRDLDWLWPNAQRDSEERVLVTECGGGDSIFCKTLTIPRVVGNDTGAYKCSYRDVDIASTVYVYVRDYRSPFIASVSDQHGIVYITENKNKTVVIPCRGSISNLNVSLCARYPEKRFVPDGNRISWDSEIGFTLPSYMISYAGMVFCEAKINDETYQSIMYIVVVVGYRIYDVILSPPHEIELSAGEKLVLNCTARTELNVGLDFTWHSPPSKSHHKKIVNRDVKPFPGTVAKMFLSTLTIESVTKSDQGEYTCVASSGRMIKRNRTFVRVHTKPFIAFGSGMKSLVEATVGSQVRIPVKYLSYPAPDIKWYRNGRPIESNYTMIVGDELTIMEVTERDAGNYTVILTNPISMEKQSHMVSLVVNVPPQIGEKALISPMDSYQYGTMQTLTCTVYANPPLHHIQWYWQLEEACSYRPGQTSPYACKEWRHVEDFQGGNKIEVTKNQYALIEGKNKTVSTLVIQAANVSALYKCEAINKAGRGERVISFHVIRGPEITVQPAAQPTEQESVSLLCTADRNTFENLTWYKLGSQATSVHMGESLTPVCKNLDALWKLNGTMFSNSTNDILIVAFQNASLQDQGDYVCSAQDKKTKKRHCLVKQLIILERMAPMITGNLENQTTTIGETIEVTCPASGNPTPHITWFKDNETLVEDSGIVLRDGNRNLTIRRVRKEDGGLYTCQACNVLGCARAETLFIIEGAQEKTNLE

[4] = target: T6, VEGFR2-D5-7-AP fusion protein (UniProt P35968 421-764); experiment: ELISA: antibody captured with sheep anti-human Fd, VEGFR2-D5-7-AP added, pNPP, A405
T6 construct: domain: domains 5-7; also called domains 5-7 of VEGFR2; not shown: alkaline phosphatase (AP) fusion partner
T6 sequence (P35968 421-764): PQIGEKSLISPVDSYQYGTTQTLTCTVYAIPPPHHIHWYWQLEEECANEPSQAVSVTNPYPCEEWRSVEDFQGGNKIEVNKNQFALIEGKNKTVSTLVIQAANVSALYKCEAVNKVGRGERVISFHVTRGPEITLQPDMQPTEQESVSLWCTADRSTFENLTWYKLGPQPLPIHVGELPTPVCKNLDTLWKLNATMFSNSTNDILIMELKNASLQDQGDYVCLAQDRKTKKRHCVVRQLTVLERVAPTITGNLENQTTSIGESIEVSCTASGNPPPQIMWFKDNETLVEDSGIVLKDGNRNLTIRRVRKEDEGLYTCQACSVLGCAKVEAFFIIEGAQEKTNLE

[5] = target: T7, recombinant human VEGFR1-Fc fusion protein (R&D Systems) (human, UniProt P17948-2 27-687, limits assumed); experiment: ELISA, human VEGFR1-Fc coated, goat anti-human F(ab)'2-HRP, OD450
T7 construct: Bought; not shown: Fc
T7 sequence (P17948 other isoform, or with tags, fused parts or gaps limits assumed): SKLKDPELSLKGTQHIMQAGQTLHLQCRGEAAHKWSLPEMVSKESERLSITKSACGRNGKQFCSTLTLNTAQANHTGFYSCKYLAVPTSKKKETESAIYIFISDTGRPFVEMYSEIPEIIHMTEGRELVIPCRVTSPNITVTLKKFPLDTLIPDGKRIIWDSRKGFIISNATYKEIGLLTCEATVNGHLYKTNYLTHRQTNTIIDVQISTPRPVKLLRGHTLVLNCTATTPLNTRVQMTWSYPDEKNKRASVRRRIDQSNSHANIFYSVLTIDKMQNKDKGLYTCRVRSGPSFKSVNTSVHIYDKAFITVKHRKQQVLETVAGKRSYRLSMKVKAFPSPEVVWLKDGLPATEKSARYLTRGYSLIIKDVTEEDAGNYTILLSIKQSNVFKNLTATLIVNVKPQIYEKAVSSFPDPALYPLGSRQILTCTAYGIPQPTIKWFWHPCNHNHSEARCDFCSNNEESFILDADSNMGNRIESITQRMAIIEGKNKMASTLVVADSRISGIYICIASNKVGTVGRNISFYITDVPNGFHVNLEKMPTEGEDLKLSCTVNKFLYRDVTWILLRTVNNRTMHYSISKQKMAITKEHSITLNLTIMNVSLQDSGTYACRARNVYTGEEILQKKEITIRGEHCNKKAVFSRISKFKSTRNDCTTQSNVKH

[6] = target: T1, human VEGFR3-Fc (R&D Systems); experiment: ELISA, human VEGFR3-Fc coated, goat anti-human F(ab)'2-HRP, OD450
Protocol: To detect binding of antibody to the antibodies to the immobilized VEGFR3-Fc, either goat anti-human F(ab)′₂-HRP or goat anti-mouse F(ab)′₂-HRP was added to each well. TMB was added to the wells, and following incubation at room temperature for 15 minutes, the reactions were stopped, and HRP activity was measured by monitoring the increase in absorbance at 450 nm.

Row | Binder | Kd (VEGFR2) | koff (VEGFR2) | kon (VEGFR2) | IC50 (read off the curve) (VEGFR2-AP [1]) | EC50 (read off the curve) (VEGFR2-AP [2]) | EC50 (read off the curve) (VEGFR2-Fc) | EC50 (read off the curve) (VEGFR2-AP [3]) | binding result (Mouse VEGFR2-Fc) | binding result [4] | binding result [5] | EC50 (read off the curve) [6]
1 | B1 | 1.28 nM | 0.000962 s⁻¹ | 752000 M⁻¹ s⁻¹ | ~0.05 µg/mL | ~300 ng/mL | ~500 ng/mL | ~600 ng/mL | no binding (tested: 500 µg/mL) | no binding (tested: 3 µg/mL) |  | 
2 | B2 |  |  |  |  |  |  |  | no binding (tested: 500 µg/mL) |  | no binding (tested: 20 µg/mL) | ~1 µg/mL
